Measurements taken from the nanobody polyreactivity screen of Harvey et al. (2022).

assay: yeast display, Sf9 membrane polyspecificity reagent, FACS + sequencing; frameworks hold sequencing errors
Method in brief: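 Polyreactivity labels are assigned by the sorting gate from which each nanobody was recovered. The gates were low and high (top ~1%), set on anti-HA fluorescence for expression and streptavidin fluorescence for reagent binding. Before sorting, galactose-induced (36–48 hours) yeast display cells were stained for 1 hour at 4 °C with 10% biotinylated, detergent-solubilized Sf9 membrane reagent.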

Row | Sequence | polyreactivity (PSR sort gate)
1 | QVQLVESGGGLVQAGGSLRLSCAASGITFRSYAMGWYRQAPGKERELVATISGRGGRTYYADSVKGRFTISRDNAKNTVYLQMNSLKPEDTAVYYCAARLHSYGVGVDYWGQGTQVSVSS | high polyreactivity
2 | QVQLVESGGGLVQAGGSLRLSCAASGITFRSYAMGWYRQAPGKERELVATISWSGGITYYADSVKGRFTISRDNAKITVYLQMNSLKPEDTAVYYCAKASQSWGRDDYYYWGQGTQLTVSS | low polyreactivity
3 | QVQLVESGGGLVQAGGSLRLSCAASGITFRSYEMGWYRAAPAKERELVAAISSGGSRTYYADSVKGRYTISRDNAKKTVYLQMNSLKPEDTAVYYCAATDRSDVYKGAYYYWGQGTQVTVSS | high polyreactivity
4 | QVQLVESGGGLVQAGGSLRLSCAASGITFRTYAMGWYRQAPGKERELVAAISGSSTSTYYADSVKGRFTISRDNAKNTVYLLMNSLKPEDTAVYYCAAGYRVSVYRYYYWGQGTQVTVSS | high polyreactivity
5 | QVQLVESGGGLVQAGGSLRLSCAASGITFRTYAMGWYRQAPGKERELVAAISGSSTSTYYADSVKGRFTISRDNAKNTVYLQLNSLKPEDSAVYYCAAGYRVSVYRYYYWGQGTQVTVSS | high polyreactivity
6 | QVQLVESGGGLVQAGGSLRLSCAASGITFRYYAMGWYRQAPGKERELVAAISYSGGSTYYADSVKGRFTISRDNAKNTVYLQMNRLKPEDTAVYYCNRVWTRLVTYPEYDYWGQGTQVTVSS | high polyreactivity
7 | QVQLVESGGGLVQAGGSLRLSCAASGITFRYYAMGWYRQAPGKERELVASITSGGVNTYYADSVKGRFTISRDNAKNTVYLQMNSLKPEDTAVYYCATRFSYSALGGYDYWGQGTQVTVSS | low polyreactivity
8 | QVQLVESGGGLVQAGGSLRLSCAASGITFRYYAMGWYRQAPGKERELVATINWSGGTTHYADSVKGRFTISRENAKNTVYLQMNSLKPEDTAVYYCAADPWQYKLGWPPFTYDYWGQGTQVTVSS | high polyreactivity
9 | QVQLVESGGGLVQAGGSLRLSCAASGITFRYYAMGWYRQAPGKERELVAVISTSGGSTYYADSVKGRFTISRDNAKNTVFLQMNSLKPEDTAVYYCAVVWPYYERYYYWGQGTQVTVSS | high polyreactivity
10 | QVQLVESGGGLVQAGGSLRLSCAASGITFRYYTMGWYRQAPGKERELVAAITTGGSTNYADSVKGRFTISRDNAKNTVYLQMNSLKPEDTAVYYCAATYKYITRGYLYDYWGQGTQVTVSS | high polyreactivity
11 | QVQLVESGGGLVQAGGSLRLSCAASGITFSEYAMGLYRQAPGKERELVAAITSGGNTYYADSVKGRFTISRDNAKNTVYLQMNSLKPEDTAVYYCAATFSSAFAYYYWGQGTQVTVSS | low polyreactivity
12 | QVQLVESGGGLVQAGGSLRLSCAASGITFSFYALGWYRHAPGKERELVAAISRGGASTYYADSVKGRFTISRDNAKNTVYLQMNSLKPEDSAVYYCAALSVDERYDYWGQGTQVTVSS | low polyreactivity
13 | QVQLVESGGGLVQAGGSLRLSCAASGITFSFYAMGWYRQAPGKERELVAAISWNGDSTYYADSVKGRFTISRDNAKNTVYLQMNSLKPEDTAVYYCNAEFVAWYYYEDQDGDYWGQGTQVTVSS | high polyreactivity
14 | QVQLVESGGGLVQAGGSLRLSCAASGITFSGNAMGWYRQAPGKARELVATISQSGGRTYYADSVNGRFTISRDNAKHTVYLQMNSLKPEDTAVYYCARRRMRYTDRGYYYWGQGTQVTVSS | high polyreactivity
15 | QVQLVESGGGLVQAGGSLRLSCAASGITFSGYDMGWYRQAPGKERELVADITISTGSTYYADSVKGRFTISRDNANNTVYLQMNSLKPEDTAVYYCAADWQQDRTVVLPSWGHAYDSWGQGTQVTVSS | low polyreactivity
16 | QVQLVESGGGLVQAGGSLRLSCAASGITFSKYAMGWFRHAPGKERELFASITWSGTSTYYADSVKGRFTISRDNAKNTVYLQMKSLKPEDTAVYYCAADGWGTFWRAQNGYGYEHDYWGKGTQVTVSS | low polyreactivity
17 | QVQLVESGGGLVQAGGSLRLSCAASGITFSLYAMGWYRQAPGKERELVAAIDWSSGSTYYADSVKGRFTISRDNAKNTVYLQMNSLKPEDTAVYYCAAEYVHHASGDFSTLYYYWGQGTQVTVSS | low polyreactivity
18 | QVQLVESGGGLVQAGGSLRLSCAASGITFSPYTMGCYRQAPGKERELVAAITDGAITYYADSVKGRFTISRDNAKNTVYLQMNSLKPEDTAVYYCAAAAWGTDPYSTDYATYDYWGQGTQVTVSS | low polyreactivity
19 | QVQLVESGGGLVQAGGSLRLSCAASGITFSRKVMGWFRQAPGKERELVAAISRSGGRTYYADSVKGRFTISRDTAKNTVYLQMNSLKPEDTAVYYCNRDIGGTSVLDDYWGQGTQVTVSS | low polyreactivity
20 | QVQLVESGGGLVQAGGSLRLSCAASGITFSRNAMGWYRQAPGKERELVATITSGGSTNYADSVKGRFTISRDNAKNTVYLQMNSLKPEDTAGYYCNAVWNTFISGRSYDYWGQGTQVTVSS | low polyreactivity
21 | QVQLVESGGGLVQAGGSLRLSCAASGITFSRNAMGWYRQAPGKERELVATITSGGSTNYADSVKGRFTISRDNAKNTVYLQMNSLKPEDTAVYYCNAVWNTLISGRSYDYWGQGTQVTVSS | low polyreactivity
22 | QVQLVESGGGLVQAGGSLRLSCAASGITFSRNAMGWYRQAPGKERELVAVISTRGGRTYYADSVKGRFTISRDNAKNTVYLQMISLKPEDTAVYYCAASPDPYWRRMDYWGQGTQVTVSS | high polyreactivity

Row | Sequence | polyreactivity (PSR sort gate)
23 | QVQLVESGGGLVQAGGSLRLSCAASGITFSRNVMGWYRQAPGKERELVAAISRSGGRTYYADSVKGRFTISRDNAKNTVYLQMNSLKPEDTAVYDCNRDIGGTSVLDDYWGQGTQVTVSS | low polyreactivity
24 | QVQLVESGGGLVQAGGSLRLSCAASGITFSRNVMGWYRQAPGKERELVAAISRSGGTTTYADSVKGRFTISRDNAKNTVYLQMNSLKPEDTAVYYCNVYDYPTYDYWGQGTQVSVSS | low polyreactivity
25 | QVQLVESGGGLVQAGGSLRLSCAASGITFSRYAMGWYRQAPGKERELVAAITVSGGTTYYADSVKGRFTISRDNAKNTVYLQMNSLKPEDTAVYYCAAVRRKTAGGLEDYWGQGTQVTVSS | high polyreactivity
26 | QVQLVESGGGLVQAGGSLRLSCAASGITFSRYAMGWYRQAPVKERELVAAITWDGGRTYYADSVKGRFTISRANAKNTVYLQMNSRKPEDTADYYCSAGSAWWYYWGQGTQVTVSS | high polyreactivity
27 | QVQLVESGGGLVQAGGSLRLSCAASGITFSTYAMGWYIQAPGKERELVAAITKSGGSTYYADSVKGRFTISRDNAKNTVYLQMNRLKPEDTAVYYCAARFPHRHYLLYTYDYWGQGTQVTVSS | low polyreactivity
28 | QVQLVESGGGLVQAGGSLRLSCAASGITFSVYAMGWYRQAPGKERELVAAINYDSGSTYYADSVKGRFTISRDNAKNTVYLQMNSLKPEDTAVYYCATDGVNPFYAFDYWGQGTQVTVSS | low polyreactivity
29 | QVQLVESGGGLVQAGGSLRLSCAASGITFSVYTMGWYIQAPGKERELVAAIDSDGITNYADSVKGRFTISRDNEKNNVYLQMNSLKPEDTAVSYCAKQTGRADGVSGFDYWGQGTQVTVSS | low polyreactivity
30 | QVQLVESGGGLVQAGGSLRLSCAASGITFSYNAMGWYRQAAGKERELVAAITWSGDSTYYADSVKGRFTISRDNAKNTVYLQMNSLKPEDTAVYYCNAVPSQHDEFDYWGQGTQVTVSS | low polyreactivity
31 | QVQLVESGGGLVQAGGSLRLSCAASGITFSYNAMGWYRQAPGKERQLVAAITWSGDSTYYADSVKGRFTISRDNAKNTVYLQMNSLKREDTAVYYCNARYLRLRYPYTDEYNYWGQGTQVTVSS | low polyreactivity
32 | QVQLVESGGGLVQAGGSLRLSCAASGITFSYNVMGWYRQAPGKERELVAAISDGGSTYYADSVKGRFTISRDNAKNTVYLLMNSLKPEDTAVYDCAKGYPYTYSQQVIYDYYYWGQGTQVTVSS | low polyreactivity
33 | QVQLVESGGGLVQAGGSLRLSCAASGITFSYNVMGWYRQAPGKERELVAAISDGGSTYYADSVKGRFTISRDNAKNTVYLQMNSLKPEDTAVYYCAADSPVDYLYALYLYVRDDYWGQGTQVTVSS | low polyreactivity
34 | QVQLVESGGGLVQAGGSLRLSCAASGITFTAYAMGWYRHAPGKERELVATINSTGITNYADSVKGRFTISRDNAKNTVYLQMNSLKPEDTAVYYCAADLLDNSSYDGMDYWGQGTQVTVSS | low polyreactivity
35 | QVQLVESGGGLVQAGGSLRLSCAASGITFTAYAMGWYRQAPGKERELVATINSTGITNYADSVKGRFTISRDNAKNTFYLQMNCLKAEDTAVSYCGADVLDISSYDGMDYWGKGTQVTVSS | low polyreactivity
36 | QVQLVESGGGLVQAGGSLRLSCAASGITFTAYDMGWYRQAPWKEREFVAAISTIGGSTNYADSVKGRFTISRDNAKNTVYLQMNSLKPEDTAVYYCFAWVYQFGYWGQGTQVTVSS | low polyreactivity
37 | QVQLVESGGGLVQAGGSLRLSCAASGITFTEYAMGWYRQAPGKERELVAAITGSGTSTYYADSVKGRFTISRDNAKNTVYLQMNSLKPEDTAVYYCAARTRGTAYNYWGQGTQVTVSS | high polyreactivity
38 | QVQLVESGGGLVQAGGSLRLSCAASGITFTEYAMGWYRQAPGKERELVATISYGGGITYYADSVKGRFTISRDNAKNTVYLQMNSLKPEDTAVYYCAADGLSQVQRGMDYWGQGTQVNVSS | low polyreactivity
39 | QVQLVESGGGLVQAGGSLRLSCAASGITFTGYDMGWYRQAPGIERELVADISNGSSTDYADSVKGRFTISRDNAKKTVYLQMNSLNPEDTAVYYCAVDIDNWSEYDYWGQGTQVTVSS | low polyreactivity
40 | QVQLVESGGGLVQAGGSLRLSCAASGITFTGYDMGWYRQAPGIERELVADISNGSSTDYADSVKGRFTISRDNAKNTVYFQMISLKPEDTAVYYCAVDIDNWSEYDYWGHGTQVTVSS | low polyreactivity
41 | QVQLVESGGGLVQAGGSLRLSCAASGITFTGYSMGWYRQAPGKERELVAVISEKGGSTYADSVKGRFTISRDNAKNTVYLQMNSLKPEDTAVYYCAARLWWPYSTAWAKMDYWGQGTQVTVSS | low polyreactivity
42 | QVQLVESGGGLVQAGGSLRLSCAASGITFTINAMGWYRQAPGKERELVAVIDVSGGSTDYADSVKGRFTISRDNAKNTVYLQMNSLKPEDTAVYYCAADEYDVYYYAYREYYWGQGTQVTVSS | low polyreactivity
43 | QVQLVESGGGLVQAGGSLRLSCAASGITFTLYAMGWYRQAPGKERELVASISWSGGSTYYADSVKGRFTISRDIAKNTVYLQMNSLKPEDTAVYYCNAVYARKYYYSHGYDYWGQGTQVTVSS | high polyreactivity
